Test results published in US20080131882A1.
Primed or numbered codes have the meaning given here. No end group written: not given here. Biotin′ = not defined here

Columns and labels:
Assay in all cases: ELISA, biotinylated peptide on streptavidin plate
RhD202.158E07 = biological target: RhD202.158E07
RhD305.181E06 = biological target: RhD305.181E06
RhD162.119G12 = biological target: RhD162.119G12

**Q.** Which signal-to-noise ratio (RhD202.158E07) does the source give for CAPRNPYEC-{Biotin′} (cysteine pairing not given here) [PEP202] here?
**A.** The signal-to-noise ratio was 10.

**Q.** Which signal-to-noise ratio (RhD305.181E06) does the source give for CTTLLHFLC (coupled to Biotin at the C-terminus) [PEP305] here?
**A.** The signal-to-noise ratio was 10.

**Q.** With CMGYGPRMC-{Biotin′} (cysteine pairing not given here) [PEP162] as the binder, how does the signal-to-noise ratio (RhD162.119G12) read?
**A.** The signal-to-noise ratio was 10.
